Experimental data taken from publication PMC9482650, “Quantitative fragmentomics allow affinity mapping of interactomes” (Nature Communications, 2022).

How the values were obtained:
Test in all cases: holdup assay
Set-up in all cases: key: below the threshold = too weak to quantify, mostly under pKd 3.1 to 4
FRMPD4, Q14CM0 = molecular target: FRMPD4, Q14CM0
SYNJ2BP, P57105 = molecular target: T1, SYNJ2BP, P57105
T1 sequence (P57105 8-110, limits assumed, looked up): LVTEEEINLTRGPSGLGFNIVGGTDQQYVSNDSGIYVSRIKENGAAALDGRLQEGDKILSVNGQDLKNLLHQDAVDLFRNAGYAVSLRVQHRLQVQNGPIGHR

PDZRN3_1, Q9UPQ7 = molecular target: T2, PDZRN3_1, Q9UPQ7
T2 sequence (Q9UPQ7 244-349, limits assumed, looked up): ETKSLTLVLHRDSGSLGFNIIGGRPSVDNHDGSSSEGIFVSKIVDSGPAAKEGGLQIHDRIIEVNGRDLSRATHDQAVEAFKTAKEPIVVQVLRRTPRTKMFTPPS

HTRA1, Q92743 = molecular target: HTRA1, Q92743
HTRA1, Q92743, sequence (Q92743 360-477): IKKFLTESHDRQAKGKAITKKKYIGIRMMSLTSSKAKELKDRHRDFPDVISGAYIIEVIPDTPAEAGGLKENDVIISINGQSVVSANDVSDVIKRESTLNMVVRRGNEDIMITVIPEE

PTPN13_1, Q12923 = molecular target: T3, PTPN13_1, Q12923
T3 sequence (Q12923 1088-1188, limits assumed, looked up): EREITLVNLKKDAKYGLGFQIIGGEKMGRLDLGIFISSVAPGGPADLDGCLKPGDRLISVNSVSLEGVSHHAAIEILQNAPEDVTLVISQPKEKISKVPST

MAGI2_3, Q86UL8 = molecular target: MAGI2_3, Q86UL8
MAGI2_3, Q86UL8, sequence (Q86UL8 600-682): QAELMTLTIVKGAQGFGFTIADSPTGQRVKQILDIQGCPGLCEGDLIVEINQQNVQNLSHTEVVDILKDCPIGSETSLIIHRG

MAGI1_2, Q96QZ7 = molecular target: MAGI1_2, Q96QZ7
MAGI1_2, Q96QZ7, sequence (Q96QZ7 456-580): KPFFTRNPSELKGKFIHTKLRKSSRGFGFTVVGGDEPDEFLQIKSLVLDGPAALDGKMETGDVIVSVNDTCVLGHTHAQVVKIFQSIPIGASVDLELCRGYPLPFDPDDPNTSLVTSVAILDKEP

SCRIB_2, Q14160 = molecular target: SCRIB_2, Q14160
SCRIB_2, Q14160, sequence (Q14160 857-960): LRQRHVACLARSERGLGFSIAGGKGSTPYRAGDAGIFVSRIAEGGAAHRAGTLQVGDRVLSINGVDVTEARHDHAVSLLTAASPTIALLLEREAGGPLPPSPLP

GRASP, Q7Z6J2 = molecular target: GRASP, Q7Z6J2
GRASP, Q7Z6J2, sequence (Q7Z6J2 96-193): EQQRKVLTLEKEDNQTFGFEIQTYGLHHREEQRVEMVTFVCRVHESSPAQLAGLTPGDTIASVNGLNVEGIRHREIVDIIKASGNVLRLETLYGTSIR

Inadl_4, Q8NI35 = molecular target: Inadl_4, Q8NI35
Inadl_4, Q8NI35, sequence (Q8NI35 547-651): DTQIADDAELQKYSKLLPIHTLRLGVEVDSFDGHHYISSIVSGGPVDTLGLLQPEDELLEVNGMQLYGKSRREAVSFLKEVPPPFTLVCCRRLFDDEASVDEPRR

PCLO, Q9Y6V0 = molecular target: T4, PCLO, Q9Y6V0
T4 sequence (Q9Y6V0 4491-4600, limits assumed, looked up): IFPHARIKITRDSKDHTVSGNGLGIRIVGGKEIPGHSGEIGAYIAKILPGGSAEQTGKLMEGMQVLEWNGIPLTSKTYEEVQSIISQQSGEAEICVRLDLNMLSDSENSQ

DLG4_1, P78352 = molecular target: DLG4_1, P78352
DLG4_1, P78352, sequence (P78352 62-152): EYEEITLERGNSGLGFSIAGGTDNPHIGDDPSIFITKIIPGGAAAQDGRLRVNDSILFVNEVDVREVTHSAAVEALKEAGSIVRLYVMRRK

GRIP2_3, Q9C0E4 = molecular target: GRIP2_3, Q9C0E4
GRIP2_3, Q9C0E4, sequence (Q9C0E4 238-339): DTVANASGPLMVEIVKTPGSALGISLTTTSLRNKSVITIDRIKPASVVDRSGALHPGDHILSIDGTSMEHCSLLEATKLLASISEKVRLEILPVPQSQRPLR

MAGI2_5, Q86UL8 = molecular target: MAGI2_5, Q86UL8
MAGI2_5, Q86UL8, sequence (Q86UL8 915-1017): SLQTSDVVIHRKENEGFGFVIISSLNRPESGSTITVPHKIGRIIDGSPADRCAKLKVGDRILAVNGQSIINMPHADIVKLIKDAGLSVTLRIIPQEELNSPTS

MAGI1_1, Q96QZ7 = molecular target: MAGI1_1, Q96QZ7
MAGI1_1, Q96QZ7, sequence (Q96QZ7 1-106): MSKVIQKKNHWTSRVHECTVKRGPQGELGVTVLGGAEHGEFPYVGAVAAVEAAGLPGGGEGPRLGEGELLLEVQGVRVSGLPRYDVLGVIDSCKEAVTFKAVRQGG

NHERF4_2, Q86UT5 = molecular target: NHERF4_2, Q86UT5
NHERF4_2, Q86UT5, sequence (Q86UT5 220-308): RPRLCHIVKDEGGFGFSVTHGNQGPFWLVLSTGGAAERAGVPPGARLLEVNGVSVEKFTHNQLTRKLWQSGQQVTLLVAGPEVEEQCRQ

GRIP1_7, Q9Y3R0 = molecular target: T5, GRIP1_7, Q9Y3R0
T5 sequence (Q9Y3R0 999-1096, limits assumed, looked up): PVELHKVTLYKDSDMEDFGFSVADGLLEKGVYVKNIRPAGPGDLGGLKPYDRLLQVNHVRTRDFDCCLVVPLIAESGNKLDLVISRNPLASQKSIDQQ

LIN7A, O14910 = molecular target: T6, LIN7A, O14910
T6 sequence (O14910 103-200, limits assumed, looked up): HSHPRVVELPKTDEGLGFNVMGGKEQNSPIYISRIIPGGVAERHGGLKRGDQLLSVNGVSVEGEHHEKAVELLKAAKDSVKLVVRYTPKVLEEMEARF

MPP6, Q9NZW5 = molecular target: T7, MPP6, Q9NZW5
T7 sequence (Q9NZW5 125-219, limits assumed, looked up): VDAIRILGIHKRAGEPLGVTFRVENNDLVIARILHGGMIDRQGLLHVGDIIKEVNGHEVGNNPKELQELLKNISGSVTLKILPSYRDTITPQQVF

FRMPD1, Q5SYB0 = molecular target: T8, FRMPD1, Q5SYB0
T8 sequence (Q5SYB0 52-145, limits assumed, looked up): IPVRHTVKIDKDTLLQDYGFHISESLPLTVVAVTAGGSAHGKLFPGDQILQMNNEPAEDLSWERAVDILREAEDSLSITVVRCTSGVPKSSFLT

MAST2, Q6P0Q8 = molecular target: MAST2, Q6P0Q8
MAST2, Q6P0Q8, sequence (Q6P0Q8 1099-1202): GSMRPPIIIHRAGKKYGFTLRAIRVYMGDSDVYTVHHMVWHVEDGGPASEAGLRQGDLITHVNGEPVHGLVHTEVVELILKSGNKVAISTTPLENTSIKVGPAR

MPP7, Q5T2T1 = molecular target: T9, MPP7, Q5T2T1
T9 sequence (Q5T2T1 134-230, limits assumed, looked up): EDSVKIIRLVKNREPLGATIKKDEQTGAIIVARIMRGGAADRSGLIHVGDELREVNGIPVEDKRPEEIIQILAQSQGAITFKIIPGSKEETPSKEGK

GRIP2_6, Q9C0E4 = molecular target: GRIP2_6, Q9C0E4
GRIP2_6, Q9C0E4, sequence (Q9C0E4 648-740): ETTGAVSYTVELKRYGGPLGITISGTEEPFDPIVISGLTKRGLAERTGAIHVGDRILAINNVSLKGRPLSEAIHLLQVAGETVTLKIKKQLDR

GRIP1_5, Q9Y3R0 = molecular target: T10, GRIP1_5, Q9Y3R0
T10 sequence (Q9Y3R0 568-668, limits assumed, looked up): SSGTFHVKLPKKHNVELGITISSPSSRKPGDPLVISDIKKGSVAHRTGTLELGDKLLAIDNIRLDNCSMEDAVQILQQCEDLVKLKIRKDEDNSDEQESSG

GRID2IP_1, A4D2P6 = molecular target: GRID2IP_1, A4D2P6
GRID2IP_1, A4D2P6, sequence (A4D2P6 1-87): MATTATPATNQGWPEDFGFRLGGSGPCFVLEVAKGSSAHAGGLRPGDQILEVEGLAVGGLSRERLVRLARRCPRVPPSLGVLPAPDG

Inadl_3, Q8NI35 = molecular target: Inadl_3, Q8NI35
Inadl_3, Q8NI35, sequence (Q8NI35 359-469): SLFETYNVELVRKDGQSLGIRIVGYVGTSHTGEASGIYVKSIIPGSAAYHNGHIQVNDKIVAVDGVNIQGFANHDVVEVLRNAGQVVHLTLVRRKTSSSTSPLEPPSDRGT

ARHGAP21, Q5T5U3 = molecular target: T11, ARHGAP21, Q5T5U3
T11 sequence (Q5T5U3 45-169, limits assumed, looked up): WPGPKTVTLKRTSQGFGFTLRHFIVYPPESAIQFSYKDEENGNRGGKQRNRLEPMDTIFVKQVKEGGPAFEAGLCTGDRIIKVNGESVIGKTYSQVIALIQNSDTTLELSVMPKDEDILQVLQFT

[1] = plain residues with an end cap or a label only (N-terminal biotin on a linker: ado-ado)
[2] = plain residues with an end cap or a label only (N-terminal biotin on a linker: (peg)3)

FRMPD4, Q14CM0, sequence (Q14CM0 67-160): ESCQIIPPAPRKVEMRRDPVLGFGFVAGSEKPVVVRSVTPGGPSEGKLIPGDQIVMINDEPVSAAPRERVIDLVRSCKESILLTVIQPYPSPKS

VYPNAKVELV [PDLIM4_iso2, P50479;P50479-1]
pKd (FRMPD4, Q14CM0; [1]): below the threshold | pKd (SYNJ2BP, P57105; [1]): below the threshold | pKd (PDZRN3_1, Q9UPQ7; [1]): below the threshold | pKd (HTRA1, Q92743; [1]): 4.62 | pKd (PTPN13_1, Q12923; [1]): below the threshold | pKd (MAGI2_3, Q86UL8; [1]): below the threshold | pKd (MAGI1_2, Q96QZ7; [1]): below the threshold | pKd (SCRIB_2, Q14160; [1]): below the threshold | pKd (GRASP, Q7Z6J2; [1]): below the threshold | pKd (Inadl_4, Q8NI35; [1]): below the threshold | pKd (PCLO, Q9Y6V0; [1]): below the threshold | pKd (DLG4_1, P78352; [1]): below the threshold | pKd (GRIP2_3, Q9C0E4; [1]): below the threshold | pKd (MAGI2_5, Q86UL8; [1]): below the threshold | pKd (MAGI1_1, Q96QZ7; [1]): below the threshold | pKd (NHERF4_2, Q86UT5; [1]): below the threshold | pKd (GRIP1_7, Q9Y3R0; [1]): below the threshold | pKd (LIN7A, O14910; [1]): below the threshold | pKd (MPP6, Q9NZW5; [1]): below the threshold | pKd (FRMPD1, Q5SYB0; [1]): below the threshold | pKd (MAST2, Q6P0Q8; [1]): below the threshold | pKd (MPP7, Q5T2T1; [1]): below the threshold | pKd (GRIP2_6, Q9C0E4; [1]): below the threshold | pKd (GRIP1_5, Q9Y3R0; [1]): below the threshold | pKd (GRID2IP_1, A4D2P6; [1]): below the threshold

LPAHHNATRL [SLC34A1, Q06495;Q06495-1]
pKd (FRMPD4, Q14CM0; [1]): 4.31 | pKd (Inadl_3, Q8NI35; [1]): below the threshold | pKd (SYNJ2BP, P57105; [1]): below the threshold | pKd (PTPN13_1, Q12923; [1]): below the threshold | pKd (ARHGAP21, Q5T5U3; [1]): 3.99 | pKd (MAGI2_3, Q86UL8; [1]): below the threshold | pKd (SCRIB_2, Q14160; [1]): below the threshold | pKd (GRASP, Q7Z6J2; [1]): 4.26 | pKd (Inadl_4, Q8NI35; [1]): below the threshold | pKd (PCLO, Q9Y6V0; [1]): below the threshold | pKd (GRIP2_3, Q9C0E4; [1]): below the threshold | pKd (MAGI1_1, Q96QZ7; [1]): below the threshold | pKd (NHERF4_2, Q86UT5; [1]): below the threshold | pKd (GRIP1_7, Q9Y3R0; [1]): below the threshold | pKd (LIN7A, O14910; [1]): below the threshold | pKd (MPP6, Q9NZW5; [1]): below the threshold | pKd (FRMPD1, Q5SYB0; [1]): below the threshold | pKd (MAST2, Q6P0Q8; [1]): 5.47 | pKd (MPP7, Q5T2T1; [1]): below the threshold | pKd (GRIP2_6, Q9C0E4; [1]): below the threshold | pKd (GRIP1_5, Q9Y3R0; [1]): below the threshold | pKd (GRID2IP_1, A4D2P6; [1]): below the threshold

NLNSSEGVPDLLV [SARS-CoV-E, P59637]
pKd (FRMPD4, Q14CM0; [2]): below the threshold | pKd (Inadl_3, Q8NI35; [2]): below the threshold | pKd (SYNJ2BP, P57105; [2]): 3.99 | pKd (PDZRN3_1, Q9UPQ7; [2]): below the threshold | pKd (HTRA1, Q92743; [2]): 4.57 | pKd (PTPN13_1, Q12923; [2]): below the threshold | pKd (ARHGAP21, Q5T5U3; [2]): 3.88 | pKd (MAGI2_3, Q86UL8; [2]): below the threshold | pKd (MAGI1_2, Q96QZ7; [2]): below the threshold | pKd (SCRIB_2, Q14160; [2]): below the threshold | pKd (GRASP, Q7Z6J2; [2]): below the threshold | pKd (Inadl_4, Q8NI35; [2]): below the threshold | pKd (PCLO, Q9Y6V0; [2]): below the threshold | pKd (DLG4_1, P78352; [2]): below the threshold | pKd (GRIP2_3, Q9C0E4; [2]): below the threshold | pKd (MAGI2_5, Q86UL8; [2]): below the threshold | pKd (MAGI1_1, Q96QZ7; [2]): below the threshold | pKd (NHERF4_2, Q86UT5; [2]): below the threshold | pKd (GRIP1_7, Q9Y3R0; [2]): 4.04 | pKd (LIN7A, O14910; [2]): below the threshold | pKd (MPP6, Q9NZW5; [2]): below the threshold | pKd (FRMPD1, Q5SYB0; [2]): below the threshold | pKd (MAST2, Q6P0Q8; [2]): below the threshold | pKd (MPP7, Q5T2T1; [2]): below the threshold | pKd (GRIP2_6, Q9C0E4; [2]): below the threshold | pKd (GRIP1_5, Q9Y3R0; [2]): below the threshold | pKd (GRID2IP_1, A4D2P6; [2]): below the threshold

YLEPVLSSEL [ATP2A2, P16615;P16615-3]
pKd (FRMPD4, Q14CM0; [1]): below the threshold | pKd (Inadl_3, Q8NI35; [1]): below the threshold | pKd (SYNJ2BP, P57105; [1]): 4.24 | pKd (PTPN13_1, Q12923; [1]): below the threshold | pKd (ARHGAP21, Q5T5U3; [1]): below the threshold | pKd (MAGI2_3, Q86UL8; [1]): below the threshold | pKd (MAGI1_2, Q96QZ7; [1]): below the threshold | pKd (GRASP, Q7Z6J2; [1]): 4.82 | pKd (Inadl_4, Q8NI35; [1]): below the threshold | pKd (PCLO, Q9Y6V0; [1]): below the threshold | pKd (DLG4_1, P78352; [1]): below the threshold | pKd (GRIP2_3, Q9C0E4; [1]): below the threshold | pKd (MAGI2_5, Q86UL8; [1]): 4.82 | pKd (MAGI1_1, Q96QZ7; [1]): below the threshold | pKd (NHERF4_2, Q86UT5; [1]): below the threshold | pKd (GRIP1_7, Q9Y3R0; [1]): below the threshold | pKd (LIN7A, O14910; [1]): below the threshold | pKd (MPP6, Q9NZW5; [1]): below the threshold | pKd (FRMPD1, Q5SYB0; [1]): below the threshold | pKd (MAST2, Q6P0Q8; [1]): 5.81 | pKd (MPP7, Q5T2T1; [1]): below the threshold | pKd (GRIP2_6, Q9C0E4; [1]): below the threshold | pKd (GRIP1_5, Q9Y3R0; [1]): below the threshold | pKd (GRID2IP_1, A4D2P6; [1]): below the threshold

KSGKQTMLVV [TRIM29, Q14134;Q14134-2]
pKd (FRMPD4, Q14CM0; [1]): below the threshold | pKd (Inadl_3, Q8NI35; [1]): below the threshold | pKd (SYNJ2BP, P57105; [1]): below the threshold | pKd (PDZRN3_1, Q9UPQ7; [1]): below the threshold | pKd (HTRA1, Q92743; [1]): 4.42 | pKd (PTPN13_1, Q12923; [1]): below the threshold | pKd (ARHGAP21, Q5T5U3; [1]): 4.14 | pKd (MAGI2_3, Q86UL8; [1]): below the threshold | pKd (MAGI1_2, Q96QZ7; [1]): below the threshold | pKd (SCRIB_2, Q14160; [1]): below the threshold | pKd (GRASP, Q7Z6J2; [1]): below the threshold | pKd (PCLO, Q9Y6V0; [1]): below the threshold | pKd (GRIP2_3, Q9C0E4; [1]): below the threshold | pKd (MAGI2_5, Q86UL8; [1]): below the threshold | pKd (MAGI1_1, Q96QZ7; [1]): below the threshold | pKd (NHERF4_2, Q86UT5; [1]): below the threshold | pKd (GRIP1_7, Q9Y3R0; [1]): below the threshold | pKd (LIN7A, O14910; [1]): below the threshold | pKd (MPP6, Q9NZW5; [1]): below the threshold | pKd (FRMPD1, Q5SYB0; [1]): below the threshold | pKd (MPP7, Q5T2T1; [1]): below the threshold | pKd (GRIP1_5, Q9Y3R0; [1]): below the threshold | pKd (GRID2IP_1, A4D2P6; [1]): below the threshold
